Assay [1] concerns the target T1, human CXCR5 (human, UniProt P32302 1-372).
T1 construct: whole, on cells; Always presented on cells; one entry is used for all cell lines; also called hCXCR5; C-X-C chemokine receptor type 5
T1 sequence (looked up): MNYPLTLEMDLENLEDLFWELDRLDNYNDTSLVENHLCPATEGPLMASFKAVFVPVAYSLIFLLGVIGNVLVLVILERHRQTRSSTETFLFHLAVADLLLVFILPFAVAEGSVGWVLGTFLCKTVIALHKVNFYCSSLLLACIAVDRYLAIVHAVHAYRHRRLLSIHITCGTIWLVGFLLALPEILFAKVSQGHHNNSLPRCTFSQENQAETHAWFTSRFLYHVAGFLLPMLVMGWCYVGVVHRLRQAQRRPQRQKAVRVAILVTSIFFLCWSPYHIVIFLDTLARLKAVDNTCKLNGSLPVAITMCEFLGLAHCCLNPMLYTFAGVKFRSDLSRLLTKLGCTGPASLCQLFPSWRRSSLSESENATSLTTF
Nature of the assay: flow cytometry on adherent DX002 cells expressing CXCR5, MFI. A general note: A flow cytometer gives signals particle by particle.

Assay [2] addresses T1, human CXCR5. The assay can be described thus: cell-based or functional assay.
For assay [3], the target named is T1, human CXCR5. Nature of the assay: binding to hCXCR5, Exp 1 (assay not given).
In assay [4] the target is T1, human CXCR5. The assay can be described thus: binding to DX002 cells expressing CXCR5.
Assay [5] has as its target T1, human CXCR5. Nature of the assay: binding to hCXCR5, Exp 2 (assay not given).
Assay [6] deals with T2, human CXCR3 (human, UniProt P49682 1-368, limits assumed).
T2 construct: also called hCXCR3
T2 sequence (looked up): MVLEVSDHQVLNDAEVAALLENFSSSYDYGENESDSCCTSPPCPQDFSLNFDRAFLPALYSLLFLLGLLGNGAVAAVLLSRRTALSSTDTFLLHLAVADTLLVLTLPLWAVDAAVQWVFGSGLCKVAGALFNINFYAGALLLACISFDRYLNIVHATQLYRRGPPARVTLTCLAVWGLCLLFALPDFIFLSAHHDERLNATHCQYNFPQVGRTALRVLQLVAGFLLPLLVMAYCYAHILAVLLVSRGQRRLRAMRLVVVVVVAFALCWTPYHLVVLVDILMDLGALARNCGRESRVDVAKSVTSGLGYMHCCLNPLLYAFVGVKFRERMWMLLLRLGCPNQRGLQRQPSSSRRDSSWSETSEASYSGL
Nature of the assay: flow cytometry (MFI) on hCXCR3.

The target in assay [7] is T1, human CXCR5. Nature of the assay: flow cytometry on an adherent stable cell line expressing hCXCR5, MFI normalized on the benchmark MFI.
Procedure: In order to test the binding capacity to CXCR5, six chimeric monoclonal antibodies were tested in binding assay using adherent stable cell line expressing the target antigen hCXCR5.
Assay [8] addresses T3, murine CXCR5 (mouse, UniProt Q04683 1-374).
T3 construct: whole, on cells; also called mouse CXCR5 ortholog
T3 sequence (looked up): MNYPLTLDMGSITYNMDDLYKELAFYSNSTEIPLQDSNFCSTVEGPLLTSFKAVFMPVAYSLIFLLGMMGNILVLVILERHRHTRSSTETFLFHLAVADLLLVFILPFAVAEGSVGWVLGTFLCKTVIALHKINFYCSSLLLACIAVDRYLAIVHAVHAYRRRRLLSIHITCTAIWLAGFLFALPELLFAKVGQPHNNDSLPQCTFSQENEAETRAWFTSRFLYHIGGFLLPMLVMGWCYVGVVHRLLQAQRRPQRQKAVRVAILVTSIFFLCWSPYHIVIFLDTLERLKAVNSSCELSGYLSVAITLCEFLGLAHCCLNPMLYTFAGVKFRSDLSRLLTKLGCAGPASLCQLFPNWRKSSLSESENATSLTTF
Nature of the assay: flow cytometry on cells transiently transfected with murine CXCR5.

In assay [9] the target is T1, human CXCR5. The assay can be described thus: flow cytometry on DX002 cells expressing CXCR5, MFI.
Assay [10] deals with T4, cynomolgus CXCR5 (cynomolgus monkey, UniProt G8F5K4 1-372).
T4 construct: whole, on cells; also called monkey CXCR5 ortholog
T4 sequence: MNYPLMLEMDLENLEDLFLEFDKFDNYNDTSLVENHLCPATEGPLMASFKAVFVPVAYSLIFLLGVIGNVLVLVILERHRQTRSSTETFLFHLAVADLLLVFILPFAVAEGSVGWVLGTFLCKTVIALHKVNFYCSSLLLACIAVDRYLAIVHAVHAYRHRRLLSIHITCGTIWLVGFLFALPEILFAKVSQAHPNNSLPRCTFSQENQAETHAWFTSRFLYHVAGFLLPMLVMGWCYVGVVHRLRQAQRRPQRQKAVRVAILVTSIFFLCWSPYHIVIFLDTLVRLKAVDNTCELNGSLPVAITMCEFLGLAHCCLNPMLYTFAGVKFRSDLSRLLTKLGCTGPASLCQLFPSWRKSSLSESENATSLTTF
The assay can be described thus: flow cytometry on cells transiently transfected with cynomolgus CXCR5.

Positions count from the first letter of the chain named. Numbers in names are those of the source.

B1: HFB2-4hG1DE (antibody, V domains shown)
VH: QVQLKESGPGLVAPSQSLSITCTVSGFSLTSYGVSWVRQPPGKGLEWLGVIWGDGSTNYHSGLISRLSISKDNSKSQVFLKLNSLQSDDTATYYCARVVYWGQGTLVTVSA
VL: DIVMTQAAPSVPVTPGESISISCRSSKSLLHSNGKTYLYWFLQRPGQSPQLLLYRMSNLASGVPDRFSGSGSGTAFTLRISRVEAEDVGVYYCMQHLEYPYTFGGGTKLEIK
notes: Chimeric HFB2-4 in the DE scaffold: human IgG1 constant region with S239D/I332E; also called HFB2-4DE
B1: the EC50 in assay [1] turned out to be 112 pM; in assay [3], 1000 pM; in assay [4], 186 pM; in assay [5] it was 1300 pM. The “ADCC lysis of Raji cells by primary NK cells, EC50” value in [2] came to 0.76 pM. Also, the “ADCC lysis of peripheral primary B cells by primary NK cells, EC50” value in [2] amounted to 0.00044 pM.

B2: HFB2-4-hG1 (antibody, V domains shown)
VH: B1 VH
VL: B1 VL
notes: Mouse-human chimeric antibody, human IgG1 constant region; also called parental
Consider B2, for which the binding result in assay [6] and in [8] was “no binding (tested: about 150 nM)” each time. This molecule yielded an EC50 in assay [7] of 924 pM.

B3: HFB2-4hz14-hG1DE (antibody, V domains shown)
VH: QVQLQESGPGLVKPSETLSLTCTVSGFSLTSYGVSWVRQPPGKGLEWIGVIWGDGSTNYNPSLKSRVTISKDTSKNQVSLKLSSVTAADTAVYYCARVVYWGQGTLVTVSS
VL: DIVMTQSPLSLPVTPGEPASISCRSSQSLLHSNGYNYLYWFLQKPGQSPQLLIYRGSNRASGVPDRFSGSGSGTDFTLKISRVEAEDVGVYYCMQHLQYPYTFGGGTKVEIK
notes: Humanized (VH3/VL1b), human IgG1 with S239D/I332E (hG1DE)
B3: the concentration giving a half-maximal response (EC50) in assay [3] was 400 pM; in assay [5] it was 100 pM.

B4: HFB2-4hz37hG1DE (antibody, V domains shown)
VH: B3 VH
VL: EIVMTQSPATLSVSPGERATLSCRSSKSLLHSNGKTYLYWFQQKPGQAPRLLIYRMSNLASGIPARFSGSGSGTEFTLTISSVQSEDVAVYYCMQHLEYPYTFGQGTKLEIK
notes: Humanized (VH3/VL6) produced in hG1DE format (human IgG1, S239D/I332E)
As to B4, the 50% effective concentration (EC50) in assay [1] amounted to 78.5 pM; in assay [4], 99 pM.

B5: HFB2-4hz38hG1DE (antibody, V domains shown)
VH: B3 VH
VL: DIVMTQSPDSLAVSLGERATINCRSSKSLLHSNGKTYLYWFQQKPGQSPKLLLYRMSNLASGVPDRFSGSGSGTDFTLTISSLQAEDVAVYYCMQHLEYPYTFGQGTKLEIK
notes: Humanized (VH3/VL7) in hG1DE format
As to B5, the EC50 in assay [1] was 87.8 pM; in assay [4], 106 pM.

B6: HFB2-4hz12-hG1DE (antibody, V domains shown)
VH: B3 VH
VL: DIQMTQSPSSLSASVGDRVTITCRSSKSLLHSNGKTYLYWFQQKPGKAPKLLIYRMSNLASGVPSRFSGSGSGTDFTLTISSLQPEDFATYYCMQHLEYPYTFGGGTKVEIK
notes: Humanized (VH3/VL4), human IgG1 with S239D/I332E (hG1DE); also called HFB2-4hz12hIgDE
In the case of B6, the EC50 came to 1200 pM in [3] and 300 pM in assay [5].

B7: HFB2-4hz15-hG1DE (antibody, V domains shown)
VH: B3 VH
VL: B1 VL with A7S, A8P, P9L, V11L, S18P, I21L, R44K, A75D, R79K
notes: Humanized (VH3/VL1c), human IgG1 with S239D/I332E (hG1DE)
Turning to B7, the EC50 in assay [3] was found to be 600 pM; in assay [5] it was 50 pM.

B8: HFB2-4hz39hG1DE (antibody, V domains shown)
VH: B3 VH with E16G, T23A, V67L, T73K
VL: B4 VL
notes: Humanized (VH6/VL6) in hG1DE format
Take B8: the EC50 in assay [1] came out at 232 pM; in assay [4], 260 pM.

B9: afucosylated HFB2-4hz42-hG1 (antibody, V domains shown)
VH: QVQLVQSGAEVKKPGASVKVSCKASGFSLTSYGVSWVRQAPGQGLEWMGVIWGDGSTNYAQKLQGRVTMTKDTSTSTAYMELRSLRSDDTAVYYCARVVYWGQGTLVTVSS
VL: B4 VL
modifications: afucosylated (no core fucose on the Fc N-glycan of the heavy chain)
notes: Afucosylated format of humanized HFB2-4hz42-hG1 (human IgG1); also called afu-HFB2-4hz42-hG1; Afu-HFB2-4hz42-hG1
Turning to B9, in assay [9], the EC50 is 820 pM.

B10: HFB2-4hz42hG1DE (antibody, V domains shown)
VH: B9 VH
VL: B4 VL
notes: Humanized (VH10/VL6) in hG1DE format
As to B10, the values for the EC50 in assay [1] and in assay [4] were 123 pM and 171 pM, respectively.

B11: HFB2-1-hG1 (antibody, V domains shown)
VH: EVKLEESGGGLVQPGGSMKLSCVASGFTFSNYWMNWVRQSPEKGLEWVAQIRLKSDNYATHYTESVKGRFTISRDDSKSSVYLQMNNLRAEDTGIYYCTPPNFDYWGQGTTLTVSS
VL: DIVMTQAAPSVTVTPGESVTISCRSTTSLLHRSGKHKFYWFLQRPGQSPQLLIYYVSNLASGVPDRFSGSGSGTDFTLRISRVEAEDFGVYYCMQSLEFPLTFGTGTKLEIK
notes: Mouse-human chimeric antibody: murine VH and VL on the human IgG1 constant region
For the molecule B11, the binding result in assay [6], in assay [8] and in [10] was “no binding (tested: about 150 nM)” in each case. For the same molecule, the EC50 in assay [7] was found to be 481 pM.

B12: HFB2-6-hG1 (antibody, V domains shown)
VH: QIQLQQSGPELVEPGASVKLSCKASGYTFTDYTIHWVKQSPGQGLEWIGWIYPGSGNIKYNDKFKGKATMTADKSSSTAYMQLSSLTSEDSAVYFCARGLRREFAYWGQGTLVTVSA
VL: DIVMTQAAFSNPVTLGTSASISCRSSKSLLHSNGITYLYWYLQKPGQSPQLLIYQMSNLASGVPDRFSSSGSGTDFTLRISRVEAEDVGVYYCAQSLELPLTFGAGTKLELK
notes: Mouse-human chimeric antibody, human IgG1 constant region
Turning to B12, the binding result in assay [6] and in assay [8] was “no binding (tested: about 150 nM)” throughout. In assay [7], the EC50 was 500 pM.

B13: HFB2-2-hG1 (antibody, V domains shown)
VH: EVQLVETGGGLVQPKGSLKLSCAASGFTFNTNAMNWVRQAPGKGLEWVARIRSKSNNYATHYVDSVKDRFTISRDDSQSMLYLQMNNLKTEDTAMYYCVSWDPFAYWGQGTLVTVSA
VL: NIMMTQSPSSLAVSAGEKVTMSCKSSQSVLYSSNQKNYLAWYQQKPGQSPKLLIYWASTRASGVPDRFTGSGSGTDFTLTISSVQTEDLAVYYCHQYLSSWTFGGGAKLEIK
notes: as for B12
With B13, the binding result in assay [6], in [8] and in assay [10] was “no binding (tested: about 150 nM)” throughout. This molecule also showed an EC50 in assay [7] of 482 pM.

Broadly, the EC50 is the concentration giving half of the maximal effect. Lower therefore signals greater potency.

For the origin of these results see patent publication US20240158517A1 (HIFIBIO HK, published 2024).
